Laboratory results from patent US20240209099A1 (SUZHOU TRANSCENTA THERAPEUTICS, published 2024).

Legend:
[1] = target: T1, Recombinant Rhesus macaque VEGFR2/KDR Protein, His tag (rhesus macaque); assay: competition ELISA: VEGF-A coated (0.25 ug/ml), antibody titrated together with 1 ug/ml rhesus VEGFR2, detection with mouse anti-VEGFR2 serum and anti-mouse Fc-HRP; blocked ligand VEGF-A
T1 construct: Expressed in HEK293, bought from ACRO Biosystems; also called rhesus VEGFR2-his; rhesus VEGFR2
T1 chain: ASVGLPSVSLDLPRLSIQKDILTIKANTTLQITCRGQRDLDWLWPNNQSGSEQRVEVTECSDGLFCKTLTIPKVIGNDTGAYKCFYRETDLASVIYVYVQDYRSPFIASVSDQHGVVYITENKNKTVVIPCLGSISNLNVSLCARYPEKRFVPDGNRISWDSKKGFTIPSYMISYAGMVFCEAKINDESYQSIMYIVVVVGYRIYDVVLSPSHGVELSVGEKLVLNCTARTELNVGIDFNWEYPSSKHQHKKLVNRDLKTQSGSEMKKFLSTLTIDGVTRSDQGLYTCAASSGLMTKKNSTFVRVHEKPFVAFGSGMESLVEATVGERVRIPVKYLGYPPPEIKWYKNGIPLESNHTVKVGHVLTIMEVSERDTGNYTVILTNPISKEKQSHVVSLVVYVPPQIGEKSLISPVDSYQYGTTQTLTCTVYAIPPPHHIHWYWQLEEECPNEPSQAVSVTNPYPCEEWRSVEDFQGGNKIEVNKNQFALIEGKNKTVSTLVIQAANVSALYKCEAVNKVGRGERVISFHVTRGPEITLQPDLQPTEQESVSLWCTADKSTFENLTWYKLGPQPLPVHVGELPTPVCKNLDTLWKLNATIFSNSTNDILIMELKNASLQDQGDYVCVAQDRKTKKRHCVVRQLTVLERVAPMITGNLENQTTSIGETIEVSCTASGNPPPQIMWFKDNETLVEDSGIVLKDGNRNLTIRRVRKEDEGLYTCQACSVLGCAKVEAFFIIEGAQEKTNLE
Experimental: For this assay, 0.25 μg/ml VEGF-A was coated on ELISA plate before a mixture of chimeric antibodies and VEGFR2 were added. To detect free VEGF-A (not bind to VEGFR2), 1:1000 diluted mouse serum (mouse previous immunized with human VEGFR2) were added and HRP conjugated goat anti-mouse Fc antibody was used as secondary antibody.
Same protocol of Example 10. Briefly, 0.25 μg/ml VEGF-A was coated overnight at 4° C. After blocking, serial diluted 54-H2L1, 48-H3L1, Ramucirumab and 1 μg/ml human VEGFR2 or rhesus VEGFR2 were added at the same time for 2 hour-incubation. After wash, mouse serum containing polyclone VEGFR2 antibody and HRP conjugated goat anti-mouse Fc antibody were added for detection of free VEGF-A coated on the plates (see FIGS. 13A and 13B).

[2] = target: T2, human VEGFR3 protein (human, UniProt P35916 25-776); assay: ELISA, 1 µg/ml antigen coated, 1 µg/ml antibody
T2 construct: also called Sino Biological 10806-H08H
T2 sequence (looked up): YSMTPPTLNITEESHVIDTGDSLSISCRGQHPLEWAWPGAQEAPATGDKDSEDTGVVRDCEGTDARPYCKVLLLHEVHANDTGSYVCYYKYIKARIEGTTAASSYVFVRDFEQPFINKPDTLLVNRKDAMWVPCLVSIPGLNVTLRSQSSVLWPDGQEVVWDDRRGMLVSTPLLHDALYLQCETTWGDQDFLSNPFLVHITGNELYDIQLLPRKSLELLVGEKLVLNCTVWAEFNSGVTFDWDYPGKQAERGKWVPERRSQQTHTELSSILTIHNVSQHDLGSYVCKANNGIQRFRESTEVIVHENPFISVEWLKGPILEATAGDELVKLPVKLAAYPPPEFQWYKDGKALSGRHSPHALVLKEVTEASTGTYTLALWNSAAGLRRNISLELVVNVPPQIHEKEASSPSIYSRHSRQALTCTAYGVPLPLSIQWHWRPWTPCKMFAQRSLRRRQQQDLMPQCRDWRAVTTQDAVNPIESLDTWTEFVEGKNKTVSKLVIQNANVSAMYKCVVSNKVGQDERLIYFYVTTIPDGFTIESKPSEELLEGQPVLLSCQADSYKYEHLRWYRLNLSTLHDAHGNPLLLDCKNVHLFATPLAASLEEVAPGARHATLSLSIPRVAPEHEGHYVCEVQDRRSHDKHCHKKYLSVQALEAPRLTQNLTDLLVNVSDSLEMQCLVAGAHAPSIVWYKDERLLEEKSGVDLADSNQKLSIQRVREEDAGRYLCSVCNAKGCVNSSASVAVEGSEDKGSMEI
Experimental: (§1) Briefly, 1 μg/ml human VEGFR1 (Sino Biological, cat #10136-H08H), VEGFR2 (Acrobiosystem, cat #KDR-H5227) and VEGFR3 (Sino Biological, cat #10806-H08H) protein were coated overnight at 4° C. 1 μg/ml humanized antibodies (48-H3L1 and 54-H2L1, produced in CHO cells or Ramucirumab from Eli Lilly Germany, lot #20150819) were added for binding to coated antigen. Secondary antibody HRP conjugated goat anti-human Fc antibody were added for detection of binding signal.

[3] = target: T3, human VEGFR1 protein (human, UniProt P17948 27-756); assay: ELISA, 1 µg/ml antigen coated, 1 µg/ml antibody
T3 construct: also called Sino Biological 10136-H08H
T3 sequence (P17948 27-756 limits assumed): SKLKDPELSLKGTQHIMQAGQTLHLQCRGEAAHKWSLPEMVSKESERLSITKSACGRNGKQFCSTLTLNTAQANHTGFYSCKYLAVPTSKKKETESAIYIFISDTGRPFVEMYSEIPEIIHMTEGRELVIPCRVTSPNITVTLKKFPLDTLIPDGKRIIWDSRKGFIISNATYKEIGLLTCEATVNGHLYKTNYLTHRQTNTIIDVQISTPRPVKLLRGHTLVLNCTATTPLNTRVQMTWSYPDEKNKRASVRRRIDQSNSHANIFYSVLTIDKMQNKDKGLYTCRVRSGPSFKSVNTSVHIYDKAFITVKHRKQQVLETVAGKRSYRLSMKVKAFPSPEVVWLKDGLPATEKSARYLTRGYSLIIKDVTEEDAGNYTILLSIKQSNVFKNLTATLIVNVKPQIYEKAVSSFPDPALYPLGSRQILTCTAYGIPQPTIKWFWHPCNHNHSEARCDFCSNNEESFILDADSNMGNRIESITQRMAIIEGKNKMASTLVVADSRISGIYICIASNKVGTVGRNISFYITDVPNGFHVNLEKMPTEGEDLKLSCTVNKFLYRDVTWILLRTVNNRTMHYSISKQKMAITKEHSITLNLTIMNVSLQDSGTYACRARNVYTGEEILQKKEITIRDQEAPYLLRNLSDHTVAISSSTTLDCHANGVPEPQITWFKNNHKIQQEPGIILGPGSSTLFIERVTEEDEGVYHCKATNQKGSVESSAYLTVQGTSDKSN
Experimental: as §1

[4] = target: T4, Recombinant Human VEGFR2/KDR Protein, His tag (hVEGFR2-his) (human, UniProt P35968 20-764); assay: ELISA, hVEGFR2-his coated, anti-human Fc-HRP; antibody made in 293T cells
T4 construct: Expressed in HEK293, bought from ACRO Biosystems; also called human VEGFR2-his; Human VEGFR2/KDR-His
Experimental: Same protocol of Example 4 except using HRP conjugated goat anti-human Fc antibody as secondary antibody. Binding to hVEGFR2-his and rhesus VEGFR2-his (Acrobiosystems, Cat #VE2-C52H3) were also analyzed head-to-head.
Same protocol of Example 9.

IC50 [1]: 0.805 µg/mL | binding result [2]: no binding (tested: 1 µg/ml) | binding result [3]: no binding (tested: 1 µg/ml) | EC50 [4]: 0.0288 µg/mL
B1: 54-H2L1 (humanized Mab54) (antibody, human IgG1, V domains shown)
VH: EVQLVESGGGLVKPGGSLRLSCAASGFTFSMYGMSWVRQAPGKRLEWVASISIGGSYTYYADSVKGRFTISRDNAKNTLYLQMNSLRAEDTAVYYCARELDGNYDYWGQGTTLTVSS
VL: DIVITQDELSLPVTFGESVSISCRSSKSLLYKDGKTYLNWFLQRPGQSPQLLIYLMSTRASGVSDRFSGSGSGTDFTLKISRVEAEDVGIYYCQQLVEYPFTFGSGTKLEIK
notes: also called 54-H2L1 (CHO); humanized 54 variant H2L1
